From US20180177850A1 (HANMI PHARM, published 2018)
Bridges are numbered along the chain shown (N, C = ends). Where no end group is shown, it is not given here. [ ]: non-standard residue; d: D form. The star is where a group is joined. Acetyl(2-(4-imidazolyl)) = O=C(Cc1c[nH]cn1)*; Aib = CC(C)(N)C(=O)O

biological target: human GLP-1 receptor (human) (UniProt P43220); assay: cell-based or functional assay
Sequence (P43220 24-463): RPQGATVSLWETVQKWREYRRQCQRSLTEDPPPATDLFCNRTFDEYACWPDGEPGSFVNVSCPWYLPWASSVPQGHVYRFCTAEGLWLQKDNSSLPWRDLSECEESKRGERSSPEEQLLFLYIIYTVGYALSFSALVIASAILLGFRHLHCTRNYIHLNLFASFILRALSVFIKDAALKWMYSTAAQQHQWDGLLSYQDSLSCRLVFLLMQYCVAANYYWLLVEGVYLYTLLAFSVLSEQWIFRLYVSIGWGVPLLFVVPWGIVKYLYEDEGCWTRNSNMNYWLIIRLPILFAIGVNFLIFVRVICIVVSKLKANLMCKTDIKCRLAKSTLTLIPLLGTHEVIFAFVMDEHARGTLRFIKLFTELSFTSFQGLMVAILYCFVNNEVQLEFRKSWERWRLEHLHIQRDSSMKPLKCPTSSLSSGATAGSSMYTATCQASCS

Row | Binder | EC50 (cAMP, CHO/GLP-1R) [nM]
1 | [Acetyl(2-(4-imidazolyl))]SQGTFTSDYSRYLDEEAVRLFIEWIRNGGPSSGAPPPSK [oxyntomodulin derivative of SEQ ID NO: 18] | 96.3
2 | [Acetyl(2-(4-imidazolyl))]SQGTFTSDYSKYLDERRAQDFVAWLKNTGPSSGAPPPS [oxyntomodulin derivative of SEQ ID NO: 3] | > 1000
3 | [Acetyl(2-(4-imidazolyl))]SQGTFTSDLSRQLEEEAVRLFIEWLMNK [oxyntomodulin derivative of SEQ ID NO: 8] | 420

biological target: human glucagon receptor (human) (UniProt P47871); assay: cell-based or functional assay
Sequence (P47871 26-477): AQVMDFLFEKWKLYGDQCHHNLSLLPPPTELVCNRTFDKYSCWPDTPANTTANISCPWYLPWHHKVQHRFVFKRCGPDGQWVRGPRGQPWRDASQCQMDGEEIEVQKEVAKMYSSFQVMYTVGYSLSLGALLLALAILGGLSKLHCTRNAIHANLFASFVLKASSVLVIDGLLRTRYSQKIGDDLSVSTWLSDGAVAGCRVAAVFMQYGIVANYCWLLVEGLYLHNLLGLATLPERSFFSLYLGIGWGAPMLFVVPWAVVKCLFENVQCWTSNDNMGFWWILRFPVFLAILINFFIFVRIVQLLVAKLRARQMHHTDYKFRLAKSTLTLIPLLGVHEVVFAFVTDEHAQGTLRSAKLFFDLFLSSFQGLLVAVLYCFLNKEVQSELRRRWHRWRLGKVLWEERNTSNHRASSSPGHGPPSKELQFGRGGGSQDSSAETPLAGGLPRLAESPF

Row | Binder | EC50 (cAMP, CHO/GCGR) [nM]
4 | [Acetyl(2-(4-imidazolyl))]SQGTFTSDYSRYLDEEAVRLFIEWIRNGGPSSGAPPPSK [oxyntomodulin derivative of SEQ ID NO: 18] | > 1000
5 | [Acetyl(2-(4-imidazolyl))]SQGTFTSDYSKYLDERRAQDFVAWLKNTGPSSGAPPPS [oxyntomodulin derivative of SEQ ID NO: 3] | 638
6 | [Acetyl(2-(4-imidazolyl))]SQGTFTSDLSRQLEEEAVRLFIEWLMNK [oxyntomodulin derivative of SEQ ID NO: 8] | > 1000

biological target: human GLP-1 receptor (human, UniProt P43220 24-463); assay: cell-based or functional assay

Row | Binder | EC50 (cAMP, CHO/GLP-1R) [nM]
7 | Y[Aib]QGTFTSDYSKYLDEKRAKEFVQWLMNTC (bridge 16-20) [oxyntomodulin derivative of SEQ ID NO: 34] | 12.5
8 | H[Aib]QGTFTSDYSKYLDEKRAKEFVQWLMNTC (bridge 16-20) [oxyntomodulin derivative of SEQ ID NO: 25] | 1.9
9 | [Acetyl(2-(4-imidazolyl))]GEGTFTSDLSRQMEEEAVRLFIEWAAHSQGTFTSDYSRYLDK [oxyntomodulin derivative of SEQ ID NO: 11] | > 1000
10 | H[Aib]QGTFTSDYAKYLDEKRAKEFVQWLMNTC (bridge 16-20) [oxyntomodulin derivative of SEQ ID NO: 33] | 2.2

biological target: human glucagon receptor (human, UniProt P47871 26-477); assay: cell-based or functional assay
Sequence (P47871 26-477): as the sequence (P47871 26-477) above

Row | Binder | EC50 (cAMP, CHO/GCGR) [nM]
11 | [Acetyl(2-(4-imidazolyl))]GEGTFTSDLSRQMEEEAVRLFIEWAAHSQGTFTSDYSKYLD [oxyntomodulin derivative of SEQ ID NO: 6] | > 1000
12 | Y[Aib]QGTFTSDYSKYLDEKRAKEFVQWLMNTC (bridge 16-20) [oxyntomodulin derivative of SEQ ID NO: 34] | 1.04
13 | H[Aib]QGTFTSDYSKYLDEKRAKEFVQWLMNTC (bridge 16-20) [oxyntomodulin derivative of SEQ ID NO: 25] | 1.3
14 | [Acetyl(2-(4-imidazolyl))]GEGTFTSDLSRQMEEEAVRLFIEWAAHSQGTFTSDYSRYLDK [oxyntomodulin derivative of SEQ ID NO: 11] | > 1000
15 | H[Aib]QGTFTSDYAKYLDEKRAKEFVQWLMNTC (bridge 16-20) [oxyntomodulin derivative of SEQ ID NO: 33] | 80.2
